Measured values: US20220251219A1 (published 2022)
Numbering of substitutions follows the chain as printed. Each block holds one binder with its values, some of them ahead of it.

What was measured:
[1] = target: human Sortilin (human, UniProt Q99523 78-830); assay: cell-based or functional assay
[2] = target: mouse Sortilin (mouse, UniProt Q6PHU5 74-825); assay: cell-based or functional assay
[3] = target: T1, recombinant human Sortilin (human, UniProt Q99523 78-830); assay: flow cytometry, 293 cells expressing recombinant human Sortilin, 10 ug/ml antibody
T1 construct: also called hSort; SORT1
Experimental: (§1) Cells were harvested, plated at 10⁵/ml in a 96 well plate, washed, and incubated in 100 μl PBS containing 10 μg/ml Mab and 2% FBS for 1 hour in ice. Cells were then washed twice and incubated in 100 μl PBS+2% FBS containing 5 μg/ml PE-conjugated anti-human secondary antibody for 30 minutes in ice. Cells were washed twice in cold PBS and data was acquired on a BD FACS Canto. Data analysis and calculation of MFI values was performed with FlowJo (TreeStar) software version 10.0.7.

[4] = target: T2, recombinant mouse Sortilin (mouse, UniProt Q6PHU5 74-825); assay: flow cytometry, 293 cells expressing recombinant mouse Sortilin, 10 ug/ml antibody
T2 construct: also called mSort
Experimental: as §1

B1: anti-Sortilin antibody S-2 (antibody, V domains shown)
VH: not shown
VL: DIQMTQSPSSLSASVGDRVTITCRASQSISSYLNWYQQKPGKAPKLLIYAASSLQSGVPSRFSGSGSGTDFTLTISSLQPEDFATYYCQQSDVSPITFGGGTKVEIK
- Percent reduction of Sortilin levels in U251 cells [1]: 96.2%
- Percent reduction of Sortilin levels in N2A cells [2]: 66%

B3: anti-Sortilin antibody S-10 (antibody, V domains shown)
VH: QVQLVQSGAEVKKPGASVKVSCKASGYTFTSYGISWVRQAPGQGLEWMGWISAYNGNTNYAQKLQGRVTMTTDTSTSTAYMELRSLRSDDTAVYYCARDPGGYGPTLYYYYGMDVWGQGTTVTVSS
VL: EIVMTQSPATLSVSPGERATLSCRASQSVSSNLAWYQQKPGQAPRLLIYGASTRATGIPARFSGSGSGTEFTLTISSLQSEDFAVYYCQQYADWPPITFGGGTKVEIK
notes: IgG
- MFI [3]: 8660 MFI
- MFI [4]: 19400 MFI

B6: anti-Sortilin antibody S-28 (antibody, V domains shown)
VH: EVQLVESGGGLVKPGGSLRLSCAASGFTFSSYSMNWVRQAPGKGLEWVSSISSSSNYIYYADSVKGRFTISRDNAKNSLYLQMNSLRAEDTAVYYCARGGLDRWGSFDIWGQGTMVTVSS
VL: not shown
notes: IgG
- MFI [3]: 8560 MFI
- MFI [4]: 21600 MFI

B15: anti-Sortilin antibody S-15 (antibody, V domains shown)
VH: QVQLVQSGAEVKKPGASVKVSCKASGYTFTSYYMSWVRQAPGQGLEWMGIINPSGGSTSYAQKFQGRVTMTRDTSTSTVYMELSSLRSEDTAVYYCARDPSGIAAAGPASRYYYGMDVWGQGTTVTVSS
VL: EIVMTQSPATLSVSPGERATLSCRASQSVSSNLAWYQQKPGQAPRLLIYGASTRATGIPARFSGSGSGTEFTLTISSLQSEDFAVYYCQQARLGPWTFGGGTKVEIK
- Percent reduction of Sortilin levels in U251 cells [1]: 87.8%
- Percent reduction of Sortilin levels in N2A cells [2]: 76.1%

B16: anti-Sortilin antibody S-9 (antibody, V domains shown)
VH: B3 VH
VL: B15 VL with A91Y, R92N, L93I, G94Y, W96L
notes: IgG
- MFI [3]: 10300 MFI
- MFI [4]: 22200 MFI

B17: anti-Sortilin antibody S-4 (antibody, V domains shown)
VH: not shown
VL: B15 VL with A91F, L93V, G94L, W96P
notes: IgG
- MFI [3]: 9120 MFI
- MFI [4]: 15700 MFI

B18: anti-Sortilin antibody S-14 (antibody, V domains shown)
VH: B15 VH
VL: B1 VL with A50G, S91H, D92Y, S94G, I96F
- Percent reduction of Sortilin levels in U251 cells [1]: 75.4%
- Percent reduction of Sortilin levels in N2A cells [2]: 58.5%

B19: anti-Sortilin antibody S-6 (antibody, V domains shown)
VH: not shown
VL: B15 VL with A91V, R92A, L93N, G94Y, W96R
notes: IgG
- MFI [3]: 11100 MFI
- MFI [4]: 25600 MFI

B20: anti-Sortilin antibody S-15 (antibody, V domains shown)
VH: B15 VH
VL: B15 VL
notes: IgG
- MFI [3]: 8740 MFI
- MFI [4]: 17600 MFI

B21: anti-Sortilin antibody S-14 (antibody, V domains shown)
VH: B15 VH
VL: B1 VL with A50G, S91H, D92Y, S94G, I96F
notes: IgG
- MFI [3]: 8010 MFI
- MFI [4]: 16500 MFI

B22: anti-Sortilin antibody S-18 (antibody, V domains shown)
VH: QVQLVQSGAEVKKPGSSVKVSCKASGGTFSSYAISWVRQAPGQGLEWMGSIIPIFGTANYAQKFQGRVTITADESTSTAYMELSSLRSEDTAVYYCARDKHGRRGYYYYMDVWGKGTTVTVSS
VL: EIVLTQSPATLSLSPGERATLSCRASQSVSSYLAWYQQKPGQAPRLLIYDASNRATGIPARFSGSGSGTDFTLTISSLEPEDFAVYYCQQGANAPPRTFGGGTKVEIK
- Percent reduction of Sortilin levels in U251 cells [1]: 85.7%
- Percent reduction of Sortilin levels in N2A cells [2]: 58%

B24: anti-Sortilin antibody S-12 (antibody, V domains shown)
VH: QVQLVQSGAEVKKPGASVKVSCKASGYTFTSYGISWVRQAPGQGLEWMGWISAYNGNTNYAQKLQGRVTMTTDTSTSTAYMELRSLRSDDTAVYYCARDLPKYKWGWFDPWGQGTLVTVSS
VL: not shown
notes: IgG
- MFI [3]: 9760 MFI
- MFI [4]: 18800 MFI

The next lines start with the values.

- MFI [3]: 11700 MFI
- MFI [4]: 28200 MFI
B2: anti-Sortilin antibody S-19 (antibody, V domains shown)
VH: QVQLVQSGAEVKKPGSSVKVSCKASGGTFSSYAISWVRQAPGQGLEWMGGIIPIFGTASYAQKFQGRVTITADESTSTAYMELSSLRSEDTAVYYCARESRIPGSGYYYYYGMDVWGQGTTVTVSS
VL: B1 VL with A50S, S91T, V93G, S94K, I96P
notes: IgG

- Percent reduction of Sortilin levels in U251 cells [1]: 90.8%
- Percent reduction of Sortilin levels in N2A cells [2]: 53.8%
B4: anti-Sortilin antibody S-29 (antibody, V domains shown)
VH: B6 VH
VL: not shown

- Percent reduction of Sortilin levels in U251 cells [1]: 85%
- Percent reduction of Sortilin levels in N2A cells [2]: 51.1%
B5: anti-Sortilin antibody S-28 (antibody, V domains shown)
VH: B6 VH
VL: not shown

- MFI [3]: 9600 MFI
- MFI [4]: 21800 MFI
B7: anti-Sortilin antibody S-29 (antibody, V domains shown)
VH: B6 VH
VL: not shown
notes: IgG

- Percent reduction of Sortilin levels in U251 cells [1]: 73%
- Percent reduction of Sortilin levels in N2A cells [2]: 67.7%
B8: anti-Sortilin antibody S-55 (antibody, V domains shown)
VH: QVQLQESGPGLVKPSETLSLTCAVSGYSISSGYYWGWIRQPPGKGLEWIGSIYHSGSTYYNPSLKSRVTISVDTSKNQFSLKLSSVTAADTAVYYCARGRPELGWDKYFQHWGQGTLVTVSS
VL: DIQMTQSPSSVSASVGDRVTITCRASQGISRWLAWYQQKPGKAPKLLIYAASSLQSGVPSRFSGSGSGTDFTLTISSLQPEDFATYYCQQANALPTFGGGTKVEIK

- Percent reduction of Sortilin levels in U251 cells [1]: 92.7%
- Percent reduction of Sortilin levels in N2A cells [2]: 87.7%
B9: anti-Sortilin antibody S-22 (antibody, V domains shown)
VH: QVQLVQSGAEVKKPGSSVKVSCKASGGTFSSYAISWVRQAPGQGLEWMGGIIPIFGTASYAQKFQGRVTITADESTSTAYMELSSLRSEDTAVYYCARQGRKTGYYYYYGMDVWGQGTTVTVSS
VL: DIQMTQSPSTLSASVGDRVTITCRASQSISSWLAWYQQKPGKAPKLLIYKASSLESGVPSRFSGSGSGTEFTLTISSLQPDDFATYYCQQADGHITFGGGTKVEIK

- Percent reduction of Sortilin levels in U251 cells [1]: 78.7%
- Percent reduction of Sortilin levels in N2A cells [2]: 71.9%
B10: anti-Sortilin antibody S-21 (antibody, V domains shown)
VH: B9 VH with G50S, S59N, Q99E, G100R, K102Y, T103D
VL: B1 VL with S91K, D92A, V93S, S94L, I96F

- MFI [3]: 8940 MFI
- MFI [4]: 23200 MFI
B11: anti-Sortilin antibody S-22 (antibody, V domains shown)
VH: B9 VH
VL: B9 VL
notes: IgG

- MFI [3]: 9380 MFI
- MFI [4]: 22900 MFI
B12: anti-Sortilin antibody S-21 (antibody, V domains shown)
VH: B9 VH with G50S, S59N, Q99E, G100R, K102Y, T103D
VL: B1 VL with S91K, D92A, V93S, S94L, I96F
notes: IgG

- Percent reduction of Sortilin levels in U251 cells [1]: 75.9%
- Percent reduction of Sortilin levels in N2A cells [2]: 80.7%
B13: anti-Sortilin antibody S-51 (antibody, V domains shown)
VH: QVQLVESGGGVVQPGRSLRLSCAASGFTFSSYGMHWVRQAPGKGLEWVAVISYDGSNKYYADSVKGRFTISRDNSKNTLYLQMNSLRAEDTAVYYCAKGLEYYDSSRLYYPYYYYMDVWGKGTTVTVSS
VL: EIVLTQSPATLSLSPGERATLSCRASQSVSSYLAWYQQKPGQAPRLLIYDASKRATGIPARFSGSGSGTDFTLTISSLEPEDFAVYYCQQRSNYPITFGGGTKVEIK

- MFI [3]: 9020 MFI
- MFI [4]: 20900 MFI
B14: anti-Sortilin antibody S-26 (antibody, V domains shown)
VH: EVQLVESGGGLVKPGGSLRLSCAASGFTFSSYSMNWVRQAPGKGLEWVSSISSSSSYIYYADSVKGRFTISRDNAKNSLYLQMNSLRAEDTAVYYCARDRLGRGYKWNWFDPWGQGTLVTVSS
VL: DIQMTQSPSSVSASVGDRVTITCRASQGIDSWLAWYQQKPGKAPKLLIYAASSLQSGVPSRFSGSGSGTDFTLTISSLQPEDFATYYCQQGNSLPPITFGGGTKVEIK
notes: IgG

- MFI [3]: 9350 MFI
- MFI [4]: 21700 MFI
B23: anti-Sortilin antibody S-18 (antibody, V domains shown)
VH: B22 VH
VL: B22 VL
notes: IgG
